Reference: patent US20260001928A1 (CORTERIA PHARMACEUTICALS, priority 2022, published 2026)
*1 amine or outer side, *2 acyl side, *3 side chain or, on linkers, in order; H or OH if unused. Side-chain parts run from the residue outwards. [ ]: non-standard residue; d: D form. The star is where a group is joined. C20 diacid = O=C(O)CCCCCCCCCCCCCCCCCCC(=O)*; C18 diacid = O=C(O)CCCCCCCCCCCCCCCCC(=O)*; γGlu = O=C(O)[C@H](CCC(=O)[*:2])N[*:1]; Myristoyl = CCCCCCCCCCCCCC(=O)*; Api = NC1(C(=O)O)CCNCC1; AEEA = NCCOCCOCC(=O)O; Aib = CC(C)(N)C(=O)O

T1: CRF1R receptor (UniProt P34998 24-415, limits assumed)
T1 sequence (looked up): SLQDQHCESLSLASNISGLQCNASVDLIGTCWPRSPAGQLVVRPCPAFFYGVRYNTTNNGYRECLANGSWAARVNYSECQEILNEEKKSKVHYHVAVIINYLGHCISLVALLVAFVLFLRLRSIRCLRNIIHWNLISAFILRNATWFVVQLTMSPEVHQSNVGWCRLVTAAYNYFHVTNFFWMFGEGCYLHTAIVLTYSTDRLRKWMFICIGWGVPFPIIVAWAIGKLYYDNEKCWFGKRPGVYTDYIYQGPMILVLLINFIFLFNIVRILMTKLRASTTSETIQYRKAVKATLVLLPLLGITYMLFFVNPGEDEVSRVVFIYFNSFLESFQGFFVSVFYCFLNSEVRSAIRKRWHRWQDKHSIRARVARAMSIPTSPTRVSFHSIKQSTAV

B1: SEQ ID NO 226 (peptide)
peptide: Ac-IVLSLD[dV]PIGLK([γGlu-C20 diacid])KILLEQEKQKKQREQAETN[Aib]QILAQV-NH2
SMILES: CC[C@H](C)[C@H](NC(C)=O)C(=O)N[C@H](C(=O)N[C@@H](CC(C)C)C(=O)N[C@@H](CO)C(=O)N[C@@H](CC(C)C)C(=O)N[C@@H](CC(=O)O)C(=O)N[C@@H](C(=O)N1CCC[C@H]1C(=O)N[C@H](C(=O)NCC(=O)N[C@@H](CC(C)C)C(=O)N[C@@H](CCCCNC(=O)CC[C@H](NC(=O)CCCCCCCCCCCCCCCCCCC(=O)O)C(=O)O)C(=O)N[C@@H](CCCCN)C(=O)N[C@H](C(=O)N[C@@H](CC(C)C)C(=O)N[C@@H](CC(C)C)C(=O)N[C@@H](CCC(=O)O)C(=O)N[C@@H](CCC(N)=O)C(=O)N[C@@H](CCC(=O)O)C(=O)N[C@@H](CCCCN)C(=O)N[C@@H](CCC(N)=O)C(=O)N[C@@H](CCCCN)C(=O)N[C@@H](CCCCN)C(=O)N[C@@H](CCC(N)=O)C(=O)N[C@@H](CCCNC(=N)N)C(=O)N[C@@H](CCC(=O)O)C(=O)N[C@@H](CCC(N)=O)C(=O)N[C@@H](C)C(=O)N[C@@H](CCC(=O)O)C(=O)N[C@H](C(=O)N[C@@H](CC(N)=O)C(=O)NC(C)(C)C(=O)N[C@@H](CCC(N)=O)C(=O)N[C@H](C(=O)N[C@@H](CC(C)C)C(=O)N[C@@H](C)C(=O)N[C@@H](CCC(N)=O)C(=O)N[C@H](C(N)=O)C(C)C)[C@@H](C)CC)[C@@H](C)O)[C@@H](C)CC)[C@@H](C)CC)C(C)C)C(C)C
B2: SEQ ID NO 225 (peptide)
peptide: Myristoyl-VLSLD[dV]PIKLK([γGlu-C20 diacid])KILLEQEKQKKQREQAETN[Aib]QILAQV-NH2
SMILES: CCCCCCCCCCCCCC(=O)N[C@H](C(=O)N[C@@H](CC(C)C)C(=O)N[C@@H](CO)C(=O)N[C@@H](CC(C)C)C(=O)N[C@@H](CC(=O)O)C(=O)N[C@@H](C(=O)N1CCC[C@H]1C(=O)N[C@H](C(=O)N[C@@H](CCCCN)C(=O)N[C@@H](CC(C)C)C(=O)N[C@@H](CCCCNC(=O)CC[C@H](NC(=O)CCCCCCCCCCCCCCCCCCC(=O)O)C(=O)O)C(=O)N[C@@H](CCCCN)C(=O)N[C@H](C(=O)N[C@@H](CC(C)C)C(=O)N[C@@H](CC(C)C)C(=O)N[C@@H](CCC(=O)O)C(=O)N[C@@H](CCC(N)=O)C(=O)N[C@@H](CCC(=O)O)C(=O)N[C@@H](CCCCN)C(=O)N[C@@H](CCC(N)=O)C(=O)N[C@@H](CCCCN)C(=O)N[C@@H](CCCCN)C(=O)N[C@@H](CCC(N)=O)C(=O)N[C@@H](CCCNC(=N)N)C(=O)N[C@@H](CCC(=O)O)C(=O)N[C@@H](CCC(N)=O)C(=O)N[C@@H](C)C(=O)N[C@@H](CCC(=O)O)C(=O)N[C@H](C(=O)N[C@@H](CC(N)=O)C(=O)NC(C)(C)C(=O)N[C@@H](CCC(N)=O)C(=O)N[C@H](C(=O)N[C@@H](CC(C)C)C(=O)N[C@@H](C)C(=O)N[C@@H](CCC(N)=O)C(=O)N[C@H](C(N)=O)C(C)C)[C@@H](C)CC)[C@@H](C)O)[C@@H](C)CC)[C@@H](C)CC)C(C)C)C(C)C
B3: SEQ ID NO 92 (peptide)
peptide: Ac-VLSLD[dV]PIKLK([AEEA-AEEA-γGlu-C18 diacid])KILLEQEKQKKQREQAETNKQILAQV-NH2
SMILES: CC[C@H](C)[C@H](NC(=O)[C@H](CCC(N)=O)NC(=O)[C@H](CCCCN)NC(=O)[C@H](CC(N)=O)NC(=O)[C@@H](NC(=O)[C@H](CCC(=O)O)NC(=O)[C@H](C)NC(=O)[C@H](CCC(N)=O)NC(=O)[C@H](CCC(=O)O)NC(=O)[C@H](CCCNC(=N)N)NC(=O)[C@H](CCC(N)=O)NC(=O)[C@H](CCCCN)NC(=O)[C@H](CCCCN)NC(=O)[C@H](CCC(N)=O)NC(=O)[C@H](CCCCN)NC(=O)[C@H](CCC(=O)O)NC(=O)[C@H](CCC(N)=O)NC(=O)[C@H](CCC(=O)O)NC(=O)[C@H](CC(C)C)NC(=O)[C@H](CC(C)C)NC(=O)[C@@H](NC(=O)[C@H](CCCCN)NC(=O)[C@H](CCCCNC(=O)COCCOCCNC(=O)COCCOCCNC(=O)CC[C@H](NC(=O)CCCCCCCCCCCCCCCCC(=O)O)C(=O)O)NC(=O)[C@H](CC(C)C)NC(=O)[C@H](CCCCN)NC(=O)[C@@H](NC(=O)[C@@H]1CCCN1C(=O)[C@H](NC(=O)[C@H](CC(=O)O)NC(=O)[C@H](CC(C)C)NC(=O)[C@H](CO)NC(=O)[C@H](CC(C)C)NC(=O)[C@@H](NC(C)=O)C(C)C)C(C)C)[C@@H](C)CC)[C@@H](C)CC)[C@@H](C)O)C(=O)N[C@@H](CC(C)C)C(=O)N[C@@H](C)C(=O)N[C@@H](CCC(N)=O)C(=O)N[C@H](C(N)=O)C(C)C
B4: SEQ ID NO 227 (peptide)
peptide: Ac-IVLSLD[dV]PIGLK([γGlu-C20 diacid])KILLEQEKQKKQREQAETN[Api]QILAQV-NH2
SMILES: CC[C@H](C)[C@H](NC(C)=O)C(=O)N[C@H](C(=O)N[C@@H](CC(C)C)C(=O)N[C@@H](CO)C(=O)N[C@@H](CC(C)C)C(=O)N[C@@H](CC(=O)O)C(=O)N[C@@H](C(=O)N1CCC[C@H]1C(=O)N[C@H](C(=O)NCC(=O)N[C@@H](CC(C)C)C(=O)N[C@@H](CCCCNC(=O)CC[C@H](NC(=O)CCCCCCCCCCCCCCCCCCC(=O)O)C(=O)O)C(=O)N[C@@H](CCCCN)C(=O)N[C@H](C(=O)N[C@@H](CC(C)C)C(=O)N[C@@H](CC(C)C)C(=O)N[C@@H](CCC(=O)O)C(=O)N[C@@H](CCC(N)=O)C(=O)N[C@@H](CCC(=O)O)C(=O)N[C@@H](CCCCN)C(=O)N[C@@H](CCC(N)=O)C(=O)N[C@@H](CCCCN)C(=O)N[C@@H](CCCCN)C(=O)N[C@@H](CCC(N)=O)C(=O)N[C@@H](CCCNC(=N)N)C(=O)N[C@@H](CCC(=O)O)C(=O)N[C@@H](CCC(N)=O)C(=O)N[C@@H](C)C(=O)N[C@@H](CCC(=O)O)C(=O)N[C@H](C(=O)N[C@@H](CC(N)=O)C(=O)NC1(C(=O)N[C@@H](CCC(N)=O)C(=O)N[C@H](C(=O)N[C@@H](CC(C)C)C(=O)N[C@@H](C)C(=O)N[C@@H](CCC(N)=O)C(=O)N[C@H](C(N)=O)C(C)C)[C@@H](C)CC)CCNCC1)[C@@H](C)O)[C@@H](C)CC)[C@@H](C)CC)C(C)C)C(C)C

How the values were obtained:
[1] = target: human corticotropin-releasing factor 2a (CRF2a receptor) (human), Q13324; test: cell-based or functional assay
Chain of human corticotropin-releasing factor 2a (CRF2a receptor) (human), Q13324 (Q13324 20-411): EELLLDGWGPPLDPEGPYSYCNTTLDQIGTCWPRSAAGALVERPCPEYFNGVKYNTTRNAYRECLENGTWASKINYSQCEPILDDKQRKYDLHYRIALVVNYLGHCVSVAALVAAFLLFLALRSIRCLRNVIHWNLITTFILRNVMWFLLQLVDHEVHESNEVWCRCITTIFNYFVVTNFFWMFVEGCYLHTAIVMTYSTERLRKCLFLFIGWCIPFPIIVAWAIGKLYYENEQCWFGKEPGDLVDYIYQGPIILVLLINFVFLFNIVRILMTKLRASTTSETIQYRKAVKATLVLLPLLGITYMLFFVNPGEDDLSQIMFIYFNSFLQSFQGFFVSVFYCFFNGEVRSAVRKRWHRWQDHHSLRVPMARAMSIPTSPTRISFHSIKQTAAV

[2] = target: T1, CRF1R receptor; test: cell-based or functional assay

| Binder | EC50 [nM] (cAMP) [1] | EC50 [2] [nM] | Emax (% I) [2] [%] |
| --- | --- | --- | --- |
| B1 | 0.18 | 42.1 | 82 |
| B2 | 0.09 | 73.4 | 70 |
| B3 | 2.3 | – | 5 |
| B4 | 0.2 | 1.74 | 97 |
